Measurements: US20250191685

System: KLF6 RTF CDKN1C #200, 8 phosphate-contact R to Q 8 phosphate-contacting Arg to Gln (Homo sapiens)
Test: cell_activity
Conditions: on-target activity reduced by only 12%; only CDKN1C upregulated in RNA-seq

CDKN1C promoter site #200
binding signal (% of unmodified): 88
